Source: PMC4783044, “Stoichiometry and Change of the mRNA Closed-Loop Factors as Translating Ribosomes Transit from Initiation to Elongation” (PLoS ONE, 2016)
Like-named read-outs stand apart in the source and are kept apart here.

T1: Flag-PAB1 (yeast, UniProt P04147 1-577)
T1 sequence (looked up): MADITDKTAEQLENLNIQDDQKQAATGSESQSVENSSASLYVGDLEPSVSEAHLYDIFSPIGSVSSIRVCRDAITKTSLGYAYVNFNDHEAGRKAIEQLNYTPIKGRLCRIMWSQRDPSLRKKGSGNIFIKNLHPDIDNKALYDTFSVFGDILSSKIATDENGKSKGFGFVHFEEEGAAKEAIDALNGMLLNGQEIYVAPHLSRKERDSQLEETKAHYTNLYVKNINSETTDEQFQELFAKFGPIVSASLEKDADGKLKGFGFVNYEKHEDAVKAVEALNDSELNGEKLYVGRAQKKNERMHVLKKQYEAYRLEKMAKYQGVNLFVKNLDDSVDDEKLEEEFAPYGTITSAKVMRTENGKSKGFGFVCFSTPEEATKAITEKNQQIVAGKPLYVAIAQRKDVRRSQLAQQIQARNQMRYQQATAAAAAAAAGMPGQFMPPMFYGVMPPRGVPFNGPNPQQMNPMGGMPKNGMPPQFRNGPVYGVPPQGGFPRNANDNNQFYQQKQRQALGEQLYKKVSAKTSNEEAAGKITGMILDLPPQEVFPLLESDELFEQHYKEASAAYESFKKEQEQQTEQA

T2: eIF4E-Flag (yeast, UniProt P07260 1-213)
T2 sequence (looked up): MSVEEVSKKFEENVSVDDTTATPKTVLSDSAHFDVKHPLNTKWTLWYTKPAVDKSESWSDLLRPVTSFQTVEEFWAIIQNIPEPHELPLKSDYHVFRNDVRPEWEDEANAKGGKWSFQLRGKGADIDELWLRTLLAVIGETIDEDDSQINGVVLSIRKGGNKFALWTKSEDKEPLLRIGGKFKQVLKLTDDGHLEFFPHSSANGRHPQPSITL


Assays:
Flag-PAB1 [1] = molecular target: T1, Flag-PAB1; experiment: co-IP + AUC; as a1, but material migrating from 90S to 200S (polysomal translating complexes); cells on glucose (elongation), or glucose depleted 10 min and glucose added back for 1 min (initiation)
eIF4E-Flag [2] = molecular target: T2, eIF4E-Flag; experiment: as above
Flag-PAB1 [3] = molecular target: T1, Flag-PAB1; experiment: co-IP + AUC; one-step anti-Flag bead purification from yeast crude extract (Tris pH 7.5, 0.15 M KCl, 2 mM MgCl2, 10% glycerol, 4°C), Flag peptide elution, then AU-FDS of the GFP fusion with AU-A230 or AU-A260 (20°C, 15,000 rpm); material migrating at 77S (monosomal translating complex); cycloheximide added to cells; cells on glucose (elongation), or glucose depleted 10 min and glucose added back for 1 min or 0 min (initiation)
eIF4E-Flag [4] = molecular target: T2, eIF4E-Flag; experiment: as above
Flag-SBP1 (yeast) = Flag-SBP1 (yeast) (UniProt P10080); experiment: as above
Flag-PAB1 [5] = molecular target: T1, Flag-PAB1; experiment: co-IP + AUC; one-step anti-Flag bead purification from yeast crude extract (Tris pH 7.5, 0.15 M KCl, 2 mM MgCl2, 10% glycerol, 4°C), Flag peptide elution, then AU-FDS of the GFP fusion with AU-A230 or AU-A260 (20°C, 15,000 rpm); material migrating at 77S (monosomal translating complex); cycloheximide added to cells; cells on glucose (elongation), or glucose depleted 10 min and glucose added back for 1 min or 0 min …; conditions: partners not purified
eIF4E-Flag [6] = molecular target: T2, eIF4E-Flag; experiment: as above; conditions: partners not purified

Flag-SBP1 (yeast), sequence (P10080 whole entry, the tested form may be a part): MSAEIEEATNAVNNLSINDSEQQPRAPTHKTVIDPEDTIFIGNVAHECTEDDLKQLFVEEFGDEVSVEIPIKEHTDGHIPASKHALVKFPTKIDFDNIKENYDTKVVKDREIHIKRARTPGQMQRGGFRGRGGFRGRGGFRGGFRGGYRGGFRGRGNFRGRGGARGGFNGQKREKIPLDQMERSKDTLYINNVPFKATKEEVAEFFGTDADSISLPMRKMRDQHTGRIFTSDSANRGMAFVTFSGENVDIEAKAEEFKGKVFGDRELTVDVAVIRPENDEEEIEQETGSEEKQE

Row | relative level in the polysomal translating complexes (90S to 200S), mRNA set at 100 (elongation) (Flag-PAB1 [1]) | relative level in the polysomal translating complexes (90S to 200S), mRNA set at 100 (initiation) (Flag-PAB1 [1]) | relative level in the polysomal translating complexes (90S to 200S), mRNA set at 100 (elongation) (eIF4E-Flag [2]) | relative level in the 77S monosomal translating complex, mRNA set at 100 (elongation) (Flag-PAB1 [3]) | relative level in the 77S monosomal translating complex, mRNA set at 100 (initiation) (Flag-PAB1 [3]) | relative level in the 77S monosomal translating complex, mRNA set at 100 (elongation) (eIF4E-Flag [4]) | relative level in the 77S monosomal translating complex, mRNA set at 100 (elongation) (Flag-SBP1 (yeast)) | percent of the polyadenylated polysomes that contain SBP1 (Flag-PAB1 [1]) | relative level in the polysomal translating complexes (90S to 200S), mRNA set at 100 (elongation) (Flag-PAB1 [1]; partners not purified) | relative level in the polysomal translating complexes (90S to 200S), mRNA set at 100 (initiation) (Flag-PAB1 [1]; partners not purified) | relative level in the polysomal translating complexes (90S to 200S), mRNA set at 100 (elongation) (eIF4E-Flag [2]; partners not purified) | relative level in the polysomal translating complexes (90S to 200S), mRNA set at 100 (initiation) (eIF4E-Flag [2]; partners not purified) | relative level in the 77S monosomal translating complex, mRNA set at 100 (elongation) (Flag-PAB1 [5]) | relative level in the 77S monosomal translating complex, mRNA set at 100 (initiation) (Flag-PAB1 [5]) | relative level in the 77S monosomal translating complex, mRNA set at 100 (elongation) (eIF4E-Flag [6]) | relative level in the 77S monosomal translating complex, mRNA set at 100 (initiation) (eIF4E-Flag [6]) | Molecule
1 | < 0.3 per 100 mRNA | < 0.3 per 100 mRNA | < 0.3 per 100 mRNA | 0.97 per 100 mRNA | 0.97 per 100 mRNA | 2.8 per 100 mRNA | < 0.3 per 100 mRNA |  |  |  |  |  |  |  |  |  | eRF1-GFP (from UniProt P12385 1-437) (natural protein)
2 | 8.3 per 100 mRNA | 11 per 100 mRNA | < 0.3 per 100 mRNA | 2.1 per 100 mRNA | 3.3 per 100 mRNA | < 0.3 per 100 mRNA |  | 8.6% |  |  |  |  |  |  |  |  | SBP1-GFP (from UniProt P10080 1-294) (natural protein)
3 |  |  |  |  |  |  | < 0.3 per 100 mRNA |  | 9.4 per 100 mRNA | 13 per 100 mRNA | 61 per 100 mRNA | 56 per 100 mRNA | 3.9 per 100 mRNA | 6.2 per 100 mRNA | 15 per 100 mRNA | 15 per 100 mRNA | eIF4G2-GFP (natural protein, yeast, UniProt P39936 1-914, looked up, eIF4G2 of yeast, GFP fusion; The printed name puts GFP after the protein; also called TIF4632-GFP; source: yeast strain RP2384 (TIF4632-GFP::G418), in crude extract) MTDQRGPPPPHPQQANGYKKFPPHDNQYSGANNSQPNNHYNENLYSAREPHNNKQYQSKNGKYGTNKYNNRNNSQGNAQYYNNRFNNGYRLNNNDYNPAMLPGMQWPANYYAPQMYYIPQQMVPVASPPYTHQPLNTNPEPPSTPKTTKIEITTKTGERLNLKKFHEEKKASKGEEKNDGVEQKSKSGTPFEKEATPVLPANEAVKDTLTETSNEKSTSEAENTKRLFLEQVRLRKAAMERKKNGLISETEKKQETSNHDNTDTTKPNSVIESEPIKEAPKPTGEANEVVIDGKSGASVKTPQHVTGSVTKSVTFNEPENESSSQDVDELVKDDDTTEISDTTGGKTVNKSDDETINSVITTEENTVKETEPSTSDIEMPTVSQLLETLGKAQPISDIYEFAYPENVERPDIKYKKPSVKYTYGPTFLLQFKDKLKFRPDPAWVEAVSSKIVIPPHIARNKPKDSGRFGGDFRSPSMRGMDHTSSSRVSSKRRSKRMGDDRRSNRGYTSRKDREKAAEKAEEQAPKEEIAPLVPSANRWIPKSRVKKTEKKLAPDGKTELFDKEEVERKMKSLLNKLTLEMFDSISSEILDIANQSKWEDDGETLKIVIEQIFHKACDEPHWSSMYAQLCGKVVKDLDPNIKDKENEGKNGPKLVLHYLVARCHEEFEKGWADKLPAGEDGNPLEPEMMSDEYYIAAAAKRRGLGLVRFIGYLYCLNLLTGKMMFECFRRLMKDLNNDPSEETLESVIELLNTVGEQFEHDKFVTPQATLEGSVLLDNLFMLLQHIIDGGTISNRIKFKLIDVKELREIKHWNSAKKDAGPKTIQQIHQEEEQLRQKKNSQRSNSRFNNHNQSNSNRYSSNRRNMQNTQRDSFASTKTGSFRNNQRNARKVEEVSQAPRANMFDALMNNDGDSD
